Here are results for two molecules from publication PMC5584224, “Peptide-based PET imaging of the tumor restricted IL13RA2 biomarker” (Oncotarget, 2017).

Structures are written as SMILES. Several values for one entry are separate records, joined by “and”; a condition that tells them apart may be missing. Equal entries are not always repeated. Non-standard residues stand in square brackets, D forms with d. Residues, ends and D or L forms follow the SMILES beside them. *: point of attachment. Biotin = O=C1N[C@H]2[C@H](CS[C@H]2CCCCC(=O)*)N1; Ahx = NCCCCCC(=O)O

For series [1] the following is noted: cited from earlier work. An excerpt:
Pep-1L was conjugated with NOTA, a chelator that can form a six-coordinate complex with Cu-64 that results in a high stability constant (log K=21.6) by CPC scientific Inc.. […] The Cu-64 radiolabeling conditions for Pep-1L were well optimized in this work for high radiochemical purity of >98%, without any need for additional purification methodologies with a specific activity of 32-35 MBq/μg (Figure 1).

Series [2] is described as follows: Biodistribution in mice bearing IL13RA2-expressing G48 xenografts. The format is in vivo. To be noted: athymic nude, mouse, in vivo, iv, total radioactivity. How it is done: (§1) Biodistribution studies with [^64Cu]Pep-1L were performed in mice bearing IL13RA2-expressing G48 tumors (n=4) to confirm in vivo binding. […] The uptake ratios for target to non-target (tumor: muscle) increased from 3.7 to 6.0 from 4 h to 24 h (Figure 4B).
(§2) Figure 4 In vivo properties of [^64Cu]Pep-1L (A) biodistribution and (B) tumor-to-muscle (target: nontarget) ratio of [^64Cu]Pep-1L in mice bearing IL13RA2-expressing tumor xenografts 4h and 24h post injection (n=4) with p values ≤ .05 considered statistically significant.
(§3) Athymic nude mice (Taconic Farms) were housed in a pathogen-free facility of the Animal Research Program at Wake Forest School of Medicine under a 12:12-h light/dark cycle and fed ad libitum. All animal experiments were conducted under IACUC approved protocols in compliance with the guidelines for the care and use of research animals established by Wake Forest Medical School Animal Studies Committee. IL13RA2-expressing G48 tumors cells (1 × 10^5 cells suspended in 10 μL) were implanted in the left flank of nude mice (25-30 g) as described previously. The presence of viable tumors was confirmed through bioluminescence imaging. Standard biodistribution studies were performed in the same nude mice with flank tumors (n=4) at 10-15 days after tumor implantation. Mice were anesthetized with 1% isoflurane-oxygen and approximately 3.7- 4.6 MBq of [^64Cu]Pep-1L was administered via tail vein injection. […] Peptide concentration of 15 mg/kg was used as the blocking agent and was intravenously injected via tail vein 15 min prior to the radiotracer. The tumor and organs of interest were dissected and gamma counted using Wallac 1480 Wizard gamma counter (Perkin Elmer, Turku, Finland). The concentration of the radioactivity in the tumor and organs were expressed in percentage injected dose per gram (%ID/g) of radioactivity with p values ≤ .05 considered statistically significant and uptake ratio of tumor-to-muscle was calculated.

In series [3] the test system is IL13RA2-expressing G48 tumors. Described as above. Format: in vivo. To be noted: G48 tumor bearing mice, 24 h post injection, non-blockade vs blockade group. How it is done:
as §1, §2, §3

A short description of series [4]: in vivo. The arrangement: species or system mice. The settings on record: athymic nude, mouse, iv, total radioactivity, tumor uptake. How it is done:
(§4) 7 days after tumor cell implantations, mice were divided into induced and uninduced (control) groups (n=4/group). To induce hIL13RA2 expression, doxycycline was administered intraperitoneally (2.5 mg/mouse) every 12 hours for 2 days. After IL13RA2-induction, [^64Cu]Pep-1L was intravenously injected to mice bearing induced or control (uninduced) subcutaneous tumors and microPET/CT imaging was performed 4 h post intravenous injection. […] Other notable findings were that there was radiotracer accumulation in liver and kidney in both induced and control animals, which are primary organs for peptide clearance. […]
(§5) B16F10 murine melanoma cell line was cultured in DMEM base media. […] Cell number was calculated using a hemocytometer and required number of B16F10 cells was suspended in DMEM media. […]
(§6) Mice bearing subcutaneous tumors were grouped into two groups (n=4) and placed in an induction chamber containing ~2% isoflurane/oxygen then secured to a custom double bed for placement of tail vein catheters. […] Samples of tumor, blood, lung, liver, spleen, kidney, muscle and heart were harvested, weighed and then counted on the gamma counter with a standard dilution of the injectate. The percentage of the injected dose per gram of tissue (%ID/g) was calculated as described above with p values ≤ .05 considered statistically significant (n=4).

Series [5] concerns B16F10-Tet-hIL13RA2 tumors. As to the kind of experiment: microPET/CT imaging, ROI analysis, in doxycycline-inducible B16F10-Tet-hIL13RA2 tumor model. Format: in vivo, mice. How it is done: as §4, §5, §6
For series [6], the system named is IL13RA2-expressing G48 cells. As to the kind of experiment: In vitro cell uptake assay with and without unlabeled Pep-1L blockade. The format is cell-based, human. How it is done: Previously, we reported that this cell line contains about 4,000,000 IL13RA2 binding sites.
Figure 3 Cell uptake of [^64Cu]Pep-1L Uptake of [^64Cu]Pep-1L in IL13RA2-expressing G48 cells after 1, 3, and 4 h of exposure. […] The data were expressed as % injected dose (ID)/mg of protein present in each well with p values ≤ .005 considered statistically significant (n=6).
The in vitro reactivity, binding affinity and specificity for [^64Cu]Pep-1L were determined using human GBM cell line G48, following previously reported methods. 1 × 10^5 cells were then seeded into each well of a 6-well culture. G48 cells were incubated overnight at 37°C with 5% CO2 in an incubator. […] The radioactivity was counted using the Wallac 1480 Wizard gamma counter (Perkin Elmer, Turku, Finland). […]
The uptake data in each sample from each well and the standard counts for each condition were expressed as counts per minute (cpm) of activity and were decay corrected for elapsed time. The cpm values of each well were normalized to the amount of radioactivity added to each well and the protein concentration in the well and expressed as percent uptake relative to the control condition. The data were expressed as %ID/mg of protein present in each well with p values ≤ 0.005 considered statistically significant.

Series [7] can be described thus: in vitro. To be noted: human, human serum.
Protocol: The in vitro serum stability of the radiotracer [^64Cu]Pep-1L in human serum was performed at different time points and was analyzed through radioTLC spotting (Figure 2).
Figure 2 In vitro serum stability of [^64Cu]Pep-1L Reverse-phase C18 radio-TLC analysis of [^64Cu]Pep-1L over a 24 hour period post production.
The in vitro serum stability of [^64Cu]Pep-1L was performed using human serum (Sigma Aldrich) following previously published methods [38, 48]. Approximately 0.037 MBq/10 μL of [^64Cu]Pep-1L was added to the serum vial, to a final volume of 100 μL and incubated at 37°C [35]. 1 μL of the sample mixture was removed and spotted on a reverse C18-TLC plate at 1 h, 2 h, 4 h, 18 h and 24 h after the radiotracer synthesis and the percentage of bound Cu-64 was determined through radioTLC analysis as mentioned above [48].

Consider `O=C(O)CN1CCN(CC(=O)O)CCN(CC(=O)O)CC1` [NOTA, 1,4,7-triazacyclononane-1,4,7-triacetic acid], for which, in series [1], the “stability constant (log K) of six-coordinate complex with Cu-64” value is listed as 21.6.

Consider `CSCC[C@H](NC(=O)[C@H](CCC(=O)O)NC(=O)CNC(=O)[C@H](CS)NC(=O)[C@H](C)N)C(=O)NCC(=O)N[C@@H](Cc1c[nH]c2ccccc12)C(=O)N[C@H](C(=O)N[C@@H](CCCNC(=N)N)C(=O)N[C@@H](CS)C(=O)NCC(=O)NCC(=O)NCC(=O)N[C@@H](CO)C(=O)NCCCCCC(=O)N[C@@H](CCCCN)C(=O)N[C@@H](CCCCNC(=O)CCCC[C@@H]1SC[C@@H]2NC(=O)N[C@@H]21)C(N)=O)C(C)C` [[^64Cu]Pep-1L, metal not drawn] (H-ACGEMGWVRCGGGS[Ahx]KK(Biotin)-NH2), for which the tissue to tissue ratio at 4 h in series [2] was found to be 3.7. The tissue to tissue ratio at 24 h in series [2] is 6. Besides, the tissue uptake at 24 h was 0.62 ± 0.579 %ID/g in series [2] (blood uptake, 24 h non-blockade); around 0.009 %ID/g in series [2] (brain uptake, 24 h); 1.21 ± 1.01 %ID/g in series [2] (heart uptake, 24 h non-blockade); 17.4 ± 1.41 %ID/g in series [2] (kidney uptake, 24 h non-blockade); 9.86 ± 1.59 %ID/g in series [2] (liver uptake, 24 h non-blockade); 3.58 ± 1.08 %ID/g in series [2] (lung uptake, 24 h non-blockade). In addition, the tissue uptake at 24 h in series [2] (muscle uptake, 24 h non-blockade) stood at 0.41 ± 0.038 %ID/g; in series [2] (tumor uptake, 24 h non-blockade) it was 2.43 ± 0.626 %ID/g. Further, the tissue uptake at 4 h in series [2] (brain uptake, 4 h) is around 0.013 %ID/g; in series [2] (nude mice with G48 flank tumors, 3.7-4.6 MBq i.v. tail vein, 4 h post injection, gamma counting, mean ± SD, n=4, read-out: tumor uptake, 4 h), 1.38 ± 0.09 %ID/g; in series [4] (doxycycline-induced tumors) it was 14.1 ± 0.246 %ID/g; in series [4] (non-induced tumors) it was 4.179 ± 0.007 %ID/g. Further, the “blockade of tumor uptake by pre-injected unlabeled peptide” value in series [3] is 5 fold and 3 fold. Further, the “tumor accumulation, doxycycline-induced vs non-induced (ROI analysis of microPET/CT)” value in series [5] (athymic nude mice, 4.62-5.5 MBq i.v., 20 min scan 4 h post injection, doxycycline 2.5 mg/mouse i.p. every 12 h for 2 days, n=4/group) was ~ 3 fold. For the same molecule, the “binding of induced vs uninduced tumors (PET/CT and post-necropsy biodistribution, abstract)” value in series [5] (summary of PET/CT and post-necropsy biodistribution, doxycycline pretreatment) is given as 3-4 fold. Besides, the “cell uptake in G48 cells under binding site blockade with unlabeled Pep-1L” value in series [6] (0.0185 MBq/well, 37°C, 1, 3, 4 h, blocker 5 μM (50x excess) unlabeled peptide 15 min before tracer, gamma counting, %ID/mg protein) is “significantly inhibited”. In addition, the “course of cell uptake over time” value in series [6] (37°C, 1 to 4 h exposure) is given as “continued increase”. Moreover, the fraction remaining at 24 h, 0.37 MBq/mL in series [7] is around 90%.

The term amount remaining denotes what is left of the initial amount, in per cent. A high value points to less turnover.
